Test [1] has as its target T1, Recombinant human CTSS (human, UniProt P25774 115-331).
T1 construct: Bought from R&D Systems (1183-CY-010); also called cathepsin S
As to the kind of experiment: fluorogenic protease activity assay (Z-VVR-AMC), initial rates fitted to the competitive inhibition equation. The method, then: (§1) The inhibition activity of Her-HC-CTSSpp IgG was then examined with human CTSS through fluorescence-based activity assays using a fluorogenic peptide substrate Z-VVR-AMC (FIG. 5). […] CTSS and CTSL belong to the same subfamily of cathepsins. And the propeptide of proCTSS is a known inhibitor of CTSL (28,29). Therefore, the activity of Her-HC-CTSSpp IgG in inhibiting human CTSL was evaluated with a fluorogenic peptide substrate Z-FR-AMC (FIG. 5). […] To further study inhibition specificity of Her-HC-CTSSpp IgG, fluorescence-based activity assays for human CTSB and bovine trypsin were carried out in the absence or presence of Her-HC-CTSSpp IgG.
(§2) Next, inhibition potency and specificity of the designed Syn-LC-CTSSpp Fab antibody were analyzed by fluorescence-based proteolytic activity assays. […] Likewise, Syn-LC-CTSSpp Fab functions as a weaker antibody inhibitor against human CTSL.

The target in test [2] is T2, Recombinant human CTSL (human, UniProt P07711 114-333).
T2 construct: Bought; also called cathepsin L
As to the kind of experiment: fluorogenic protease activity assay (Z-FR-AMC), initial rates fitted to the competitive inhibition equation. The method, then: as §1, §2

Test [3] has as its target T2, Recombinant human CTSL. As to the kind of experiment: ratio of Ki values from fluorogenic protease activity assays.

T2 sequence (P07711 114-333): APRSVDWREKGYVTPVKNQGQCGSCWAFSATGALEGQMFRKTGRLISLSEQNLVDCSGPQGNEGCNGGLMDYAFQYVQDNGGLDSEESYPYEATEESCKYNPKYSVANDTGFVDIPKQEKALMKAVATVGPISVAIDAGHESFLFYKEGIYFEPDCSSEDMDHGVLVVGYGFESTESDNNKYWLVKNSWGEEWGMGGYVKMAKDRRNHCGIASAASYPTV

B1: Syn-LC-CTSSpp Fab (Fab)
light: QLHKDPTLDHHWHLWKKTYGKQYKEKNEEAVRRLIWEKNLKFVMLHNLEHSMGMHSYDLGMNHLGDMTSEEVMSLMSSLRVPSQWQRNITYKSNPNRGGGGSDIQMTQSPSTLSASVGDRVTITCKCQLSVGYMHWYQQKPGKAPKLLIYDTSKLASGVPSRFSGSGSGTEFTLTISSLQPDDFATYYCFQGSGYPFTFGGGTKLEIKRTVAAPSVFIFPPSDEQLKSGTASVVCLLNNFYPREAKVQWKVDNALQSGNSQESVTEQDSKDSTYSLSSTLTLSKADYEKHKVYACEVTHQGLSSPVTKSFNRGEC
heavy: QVTLRESGPALVKPTQTLTLTCTFSGFSLSTSGMSVGWIRQPPGKALEWLADIWWDDKKDYNPSLKSRLTISKDTSKNQVVLKVTNMDPADTATYYCARSMITNWYFDVWGAGTTVTVSSASTKGPSVFPLAPSSKSTSGGTAALGCLVKDYFPEPVTVSWNSGALTSGVHTFPAVLQSSGLYSLSSVVTVPSSSLGTQTYICNVNHKPSNTKVDKKVEPKSCDKTHT
What is called Ki is the equilibrium dissociation constant of an inhibitor or competing ligand from its target. Consider B1, for which the Ki in test [1] worked out at 2.12 nM; in test [2], 24.5 nM. Besides, in test [3], the “fold decrease of potency for CTSL in comparison to CTSS” value is about 12 fold.

B2: Her-HC-CTSSpp IgG (antibody)
heavy: EVQLVESGGGLVQPGGSLRLSCAASGFNIKDTYIHWVRQAPGKGLEWVARIYPTNGYTRYADSVKGRFTISADTSKNTAYLQMNSLRAEDTAVYYCSRGGSGAKLAALKAKLAALKCGGGGSIEGRQLHKDPTLDHHWHLWKKTYGKQYKEKNEEAVRRLIWEKNLKFVMLHNLEHSMGMHSYDLGMNHLGDMTSEEVMSLMSSLRVPSQWQRNITYKSNPNRGGGGSCELAALEAELAALEAGGSGDYWGQGTLVTVSSASTKGPSVFPLAPSSKSTSGGTAALGCLVKDYFPEPVTVSWNSGALTSGVHTFPAVLQSSGLYSLSSVVTVPSSSLGTQTYICNVNHKPSNTKVDKKVEPKSCDKTHTCPPCPAPPVAGPSVFLFPPKPKDTLMISRTPEVTCVVVDVSHEDPEVKFNWYVDGVEVHNAKTKPREEQYNSTYRVVSVLTVLHQDWLNGKEYKCKVSNKGLPSSIEKTISKAKGQPREPQVYTLPPSRDELTKNQVSLTCLVKGFYPSDIAVEWESNGQPENNYKTTPPVLDSDGSFFLYSKLTVDKSRWQQGNVFSCSVMHEALHNHYTQKSLSLSPGK
light: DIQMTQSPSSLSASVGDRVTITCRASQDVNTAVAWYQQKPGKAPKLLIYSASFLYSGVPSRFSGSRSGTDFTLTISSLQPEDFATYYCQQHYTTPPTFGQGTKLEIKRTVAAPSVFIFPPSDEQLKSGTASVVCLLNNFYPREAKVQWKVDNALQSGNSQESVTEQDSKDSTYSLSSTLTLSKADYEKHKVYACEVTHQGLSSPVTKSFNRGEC
notes: Full-length IgG expressed in Expi293F cells and purified on protein G. The propeptide of proCTSS is grafted into CDR3H of the anti-HER2 antibody Herceptin
B2: the Ki was 6.03 nM in test [1] and 49.3 nM in test [2].

The record behind these values is patent publication US20240383967A1 (UNIVERSITY OF SOUTHERN CALIFORNIA, published 2024).
